From patent US20110293610A1 (published 2011)

B1: BAB2001 (scFv)
scFv: GVQLVQSGAEVRKPGASVKVSCKPSGYPFSGNYIHWVRQAPGQGPEWMGWINPNSGDTKYSQKFQGWVTMTRDTSVSTVYMELNRLKSDDTAIYYCAREQYDTLTGSPYGMDVWGKGTLVTVSSGGGGSGGGGSGGGGSDIQMTQSPSTLSASIGDRVTITCRASQGINNYLAWYQQKPGRAPKLLIYAASSLQSGVPSRFSGSGSGTDFTLTISSLQPEDFATYYCLQDSDYPLTFGGGTKLEIKR
B2: BAB2080 (scFv)
scFv: KVQLVQSGGGLVKPGGSLRLSCAASGFTFSNYGMHWVRQAPGKGLEWVALISYDGSNKYYADSVKGRFTISRDNSKNTLYLQMNSLRAEDTAVYYCAKLNSLRGGHDYWGRGTLVTVSSGGGGSGGGGSGGGGSQSVLTQPPSVSAAPGQKVTISCSGSTSNIGNNYVSWYQQHPGKAPKLMIYDVSKRPSGVPDRFSGSKSSNSASLDISGLQSEDEADYYCAAWDDSLSEFLFGTGTKLTVLG
B3: BAB2015 (scFv)
scFv: QVQLVQSGAEVKKPGSSVKVSCKASGGTLGNYGISWVRQAPGQGLEWMGAIIPNFGTTNYVQKFQGRVTMTTDTSTSTAYMELRSLRSDDTAVYYCARGASSGWYDYYYYMDVWGKGTMVTVSSGGGGSGGGGSGGGGSDIQMTQSPSTLSASIGDRVTITCRASEGIYHWLAWYQQKPGKAPKLLIYKASSLASGAPSRFSGSGSGTDFTLTISSLQPDDFATYYCQQYSNYPLTFGGGTKLEIRR
B4: BAB2019 (scFv)
scFv: EVQLVQSGAEVKKPGASVKVSCKASGYTFTSSGISWVRQAPGQGLEWMGWINGYNGNTKYAQKFQGRVTMTTDTSTTTAYMELRSLRSDDTAVYYCARDSYDILTDYYNMIMDVWGQGTLVTVSSGGGGSGGGGSGGGGSQSVLTQPASVSGSPGQSITISCTGTSSDVGGYNYVSWYQQHPGKAPKLMIYEGSKRPSGVSNRFSGSKSGNTASLTISGLQAEDEADYYCSSYTTRSTRVFGGGTKLTVLG
B5: I084A01 (scFv)
scFv: QVQLVQSGGGLVQPGGSLRLSCAASGFTFSSYEMNWVRQAPGKGLEWVSYISSSGSTTYYADSVKGRFTISRDNAKNSLYLQMNSLRAEDTAVYYCARDTTDYWGQGTMVTVSSGGGGSGGGGSGGGGSQSVLTQPPSASGTPGQRVTISCSGSSSNIGSNTVNWYQRLPGAAPQLLIYNNDQRPSGIPDRFSGSKSGTSGSLVISGLQSEDEADYYCASWDDSLNGRVFGGGTKLTVLG
B6: I084B02 (scFv)
scFv: QVQLVQSGGGLVQPGGSLRLSCAASGFTFSSYEMNWVRQAPGKGLEWVSYISSSGSTTYYADSVKGRFTISRDNAKNSLYLQMNSLRAEDTAVYYCARDTTDYWGQGTLVTVSSGGGGSGGGGSGGGGSDIVMTQSPSTLSASVGDRVTITCRASQGISSWLAWYQQKPGRAPKVLIYKASTLESGVPSRFSGSGSGTDFTLTISSLQPEDFATYYCQQSYSTPWTFGQGTKLEIKR
B7: I084C11 (scFv)
scFv: GVQLEESGAEVKKPGASVKVSCKASGYTFTGYYMHWVRQAPGQGLEWMGWINPNSGGTNYAQKFQGRVTMTRDTSISTAYMELSRLRSDDTAVYYCARGNAWGAFDIWGRSTLVTVSSGGGGSGGGGSGGGGSQSVLTQPASVSGSPGQSITISCTGTSSDVGGYNYVSWYQQHPGKAPKLMIYEGSKRPSGVSNRFSGSKSGNTASLTVSGLQAEDEADYYCSSYTTRSTRVFGGGTKLTVLG
B8: I080A08 (scFv)
scFv: QVTLKESGGDLVQPGGSLRLSCAASGLTFMSYAMTWVRQAPGKGLEWVSSISGSGDNTYYGDSVRGRFTISRDNSKNTLFLQLNSLRAEDTAFYYCAKVHSTGYAFENWGRGTLVTVSSGGGGSGGGGSGGGGSAQSVLTQPPSVSGAPGQRVTISCTGSSSNIGAGYNVHWYQQLPGTAPRLLISSNTNRPSGVPDRFSGSKSGTSASLAITGLQAEDEADYYCQSYDSSLSGFVFGTGTKVTVLG

Target: T1, B Lymphocyte Stimulator, soluble form (human) (human, UniProt Q9Y275 134-285, biotinylated with NHS-biotin where used as biotinylated B Lymphocyte Stimulator)
T1 construct: Coated on plastic, captured on streptavidin plates, amine-coupled to a CM5 chip or free in solution, depending on the assay; also called BLyS; immobilized B Lymphocyte Stimulator
Test: phage display panning on soluble BLyS
From the text: (§1) In a specific embodiment, antibodies of the present invention cross react with APRIL (SEQ ID NO:3239; GenBank Accession No. AF046888; J. Exp. Med. 188(6):1185-1190; PCT International Publication WO97/33902). […] These scFvs were isolated by panning a phage scFv library comprising VH and VL domains obtained from human bone marrow B cells (BM library). Phage from the BM phage library were first selected for binding to soluble B Lymphocyte Stimulator (amino acids 134-285 of SEQ ID NO:3228). A second round of selection for binding to the soluble form of APRIL (amino acids 105-250 of SEQ ID NO:3239) was then performed on the B Lymphocyte Stimulator binding phage selected in round one. A third round of selection for binding to the soluble form of APRIL (amino acids 105-250 of SEQ ID NO:3239) was then performed on the phage selected in round two. A final (fourth) round of selection for binding to the soluble form of B Lymphocyte Stimulator (amino acids 134-285 of SEQ ID NO:3228) was then performed on the phage selected in round three. Phage clones that bound B Lymphocyte Stimulator in the fourth round of selection were eluted with either 0.1M triethylamine (TEA) or with a TACI-Fc fusion protein (e.g., the extracellular domain of TACI (amino acids 31 to 159 of Genbank Accession No. AAC51790) fused to Fc).

| Binder | binding result |
| --- | --- |
| B1 | binds |
| B2 | binds |
| B3 | binds |
| B4 | binds |

Target: T2, HIS-tagged B Lymphocyte Stimulator (human, UniProt Q9Y275 71-285)
T2 construct: Expressed in E. coli from pQE9 and purified; also called histidine-tagged B Lymphocyte Stimulator; HIS-B Lymphocyte Stimulator; not shown: histidine tag of the pQE9 vector
Test: BIAcore, periplasmic scFv on high density HIS-BLyS surface
Procedure: All BIAcore analysis was performed on BIAcore 2000 machines, using the BIAcore 2000 control software and evaluated using the BIAevaluation 3.0 software. A high density His-tagged B Lymphocyte Stimulator surface (>1000 RU HIS-B Lymphocyte Stimulator coupled) was prepared in flow cell 2 by amine coupling to a CM5 chip. A new CM5 chip was inserted into the BIAcore and a sensorgram started over flow cell 2 with HBS buffer at a flow rate of 5 μl/min. The NHS and EDC solution were mixed 1:1 before injecting 30 μl over the CM5 surface. Fifty μl HIS-B Lymphocyte Stimulator (at 10 μg/ml in Sodium acetate buffer, pH4) was injected and allowed to couple to the surface. Thirty μl of ethanolamine-HCl solution was then injected to block free NHS esters. Prior to using the chip, 10 μl of 4M Guanidine hydrochloride in HBS was injected over the surface to strip the surface of non-covalently bound B Lymphocyte Stimulator. A blank surface (no HIS-B Lymphocyte Stimulator) was also prepared over flow cell 1 so that non-specific binding effects can be subtracted from the HIS-B Lymphocyte Stimulator binding curves.
The 96-well plate containing periplasmic scFvs was secured inside the BIAcore. Two ml of 4M Guanidine hydrochloride in HBS was placed in a rack inside the BIAcore for regeneration of the HIS-B Lymphocyte Stimulator surface between samples. The sensorgram was run over flow cells 1 and 2 at a flow rate of […].

| Binder | binding result |
| --- | --- |
| B5 | binds |
| B6 | binds |
| B7 | binds |
| B8 | binds |

Target: T3, APRIL, soluble form (Homo sapiens (Human), UniProt O75888 105-250)
T3 sequence: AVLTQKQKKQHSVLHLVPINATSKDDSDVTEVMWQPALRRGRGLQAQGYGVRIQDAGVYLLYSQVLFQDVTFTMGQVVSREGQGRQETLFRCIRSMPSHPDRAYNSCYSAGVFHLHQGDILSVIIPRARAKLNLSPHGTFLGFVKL
Test: phage display panning on soluble APRIL, rounds two and three
From the text: as §1

| Binder | binding result |
| --- | --- |
| B1 | binds |
| B2 | binds |
| B3 | binds |
| B4 | binds |
